The EC50 is the midpoint of the concentration-response curve. Read a low EC50 as a more potent agent. One may read the Kd as the free concentration of one partner at which half of the binding sites on the other are occupied at equilibrium, for simple one-to-one binding. As usually defined, the koff is a measure of how fast the partners let go of each other.

For assay [1], the target named is two-zinc finger construct containing SD0, MBP–Avi–His fusion, biotinylated (UniProt Q13422). Nature of the assay: FRET; pomalidomide titration (compound EC50 of ternary complex formation).
Chain of two-zinc finger construct containing SD0, MBP–Avi–His fusion, biotinylated (Q13422 other isoform, or with tags, fused parts or gaps): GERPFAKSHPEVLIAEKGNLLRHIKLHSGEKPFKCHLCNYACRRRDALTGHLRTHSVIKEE
For assay [2] the target is unchanged. Nature of the assay: FRET; saturating pomalidomide. To be noted: complex.
The target of assay [3] is DDB1^ΔBPB•CRBN complex (tags cleaved, for BLI) (human) (UniProt Q96SW2). Nature of the assay: BLI; pomalidomide. A general note: BLI is a label-free optical method that tracks binding on a fibre tip over time.
Chain of DDB1^ΔBPB•CRBN complex (tags cleaved, for BLI) (human) (Q96SW2 whole entry, stated change not applied, chain 1 of 2): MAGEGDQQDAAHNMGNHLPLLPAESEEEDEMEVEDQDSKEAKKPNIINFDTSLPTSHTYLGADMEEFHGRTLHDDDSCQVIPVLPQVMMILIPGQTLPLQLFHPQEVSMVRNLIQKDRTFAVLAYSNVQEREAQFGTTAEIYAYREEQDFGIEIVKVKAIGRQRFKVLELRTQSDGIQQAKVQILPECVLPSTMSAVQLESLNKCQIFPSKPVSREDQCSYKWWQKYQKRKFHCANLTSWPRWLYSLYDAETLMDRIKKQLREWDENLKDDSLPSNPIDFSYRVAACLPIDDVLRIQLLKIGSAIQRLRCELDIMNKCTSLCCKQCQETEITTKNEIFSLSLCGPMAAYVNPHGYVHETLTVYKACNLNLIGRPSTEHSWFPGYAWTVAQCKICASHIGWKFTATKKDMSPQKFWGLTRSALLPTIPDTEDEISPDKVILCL
Chain of DDB1^ΔBPB•CRBN complex (tags cleaved, for BLI) (human) (Q16531 other isoform, or with tags, fused parts or gaps mutant, chain 2 of 2, further chain): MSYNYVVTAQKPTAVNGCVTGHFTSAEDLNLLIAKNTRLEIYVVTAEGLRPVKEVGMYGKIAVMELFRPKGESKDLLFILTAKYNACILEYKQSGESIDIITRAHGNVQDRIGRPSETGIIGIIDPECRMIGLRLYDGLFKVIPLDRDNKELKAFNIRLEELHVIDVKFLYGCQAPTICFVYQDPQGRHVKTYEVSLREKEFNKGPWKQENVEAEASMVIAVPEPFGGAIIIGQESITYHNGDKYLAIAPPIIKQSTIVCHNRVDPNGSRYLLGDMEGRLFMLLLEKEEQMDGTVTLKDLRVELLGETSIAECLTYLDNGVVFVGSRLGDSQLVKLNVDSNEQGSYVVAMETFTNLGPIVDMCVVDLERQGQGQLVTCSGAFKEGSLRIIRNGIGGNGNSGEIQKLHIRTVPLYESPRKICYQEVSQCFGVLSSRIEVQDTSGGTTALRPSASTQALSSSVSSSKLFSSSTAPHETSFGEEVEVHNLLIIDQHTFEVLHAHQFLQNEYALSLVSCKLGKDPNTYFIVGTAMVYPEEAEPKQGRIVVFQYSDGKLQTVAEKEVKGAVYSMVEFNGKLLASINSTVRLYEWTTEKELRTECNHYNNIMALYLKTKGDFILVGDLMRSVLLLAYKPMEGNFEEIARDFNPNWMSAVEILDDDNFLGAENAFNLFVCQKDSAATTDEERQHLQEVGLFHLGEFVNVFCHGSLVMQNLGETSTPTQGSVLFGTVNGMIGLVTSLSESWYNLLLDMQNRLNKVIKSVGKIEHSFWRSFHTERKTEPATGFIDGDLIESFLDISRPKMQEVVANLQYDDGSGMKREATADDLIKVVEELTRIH

As for “CRBN–eGFP•DDB1^ΔBPB (from UniProt Q96SW2 1-442; Q16531 1-395; Q16531 706-1140)”, the EC50 in assay [1] was found to be 0.314 µM. The substance also had an equilibrium dissociation constant (Kd) in assay [2] of 0.212 µM.

In the case of “two-zinc finger construct containing SD0, MBP–Avi–His fusion, biotinylated (from UniProt Q13422 141-145; Q96JP5 450-460; Q13422 157-243)”, in assay [3], the Kd turned out to be 0.245 µM and the koff stood at 0.071 s⁻¹.

Values taken from PMC11203266, “Continuous evolution of compact protein degradation tags regulated by selective molecular glues” (Science (New York, N.Y.), 2024).
